Earlier results on 1 substance are cited in PMC9106955.

By Kd is commonly meant the equilibrium constant for the complex coming apart.

The series addresses GLP-1R N-terminal domain (UniProt P43220).
Sequence of UniProt P43220 (P43220 24-145): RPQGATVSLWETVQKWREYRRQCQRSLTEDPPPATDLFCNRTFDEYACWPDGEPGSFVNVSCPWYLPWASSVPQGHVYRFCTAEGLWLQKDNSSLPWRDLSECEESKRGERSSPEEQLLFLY

Turning to Exendin-4 (from UniProt P26349), the Kd was 6 nM.
